The source of these data is patent US20200131249A1 (EVOLVERITAS KFT, published 2020).

First the molecules themselves.
B1: protein according to SEQ ID NO: 11 (TFPI-D2 variant with the inhibitor loop FCRAVKR) (designed binder)
chain: KPDFCFLEEDPGFCRAVKRRYFYNNQTKQCERFKYGGCLGNMNNFETLEECKNICEDG
modifications: ends and bridges not checked; cysteine pairing not given here
notes: Made in E. coli as a His6-S100A4 fusion and freed by TEV protease
B2: protein according to SEQ ID NO: 14 (TFPI-D2 variant with the inhibitor loop PCRAVKR) (designed binder)
chain: B1 chain with F13P
modifications: ends and bridges not checked; cysteine pairing not given here
notes: Made as m1
B3: rat MASP-2 catalytic fragment CCP1-CCP2-SP (enzyme)
chain: MTQPCPDPTAPPNGHISPVQATYVLKDSFSVFCKTGFELLQGSVPLKSFTAVCQKDGSWDRPIPECSIIDCGPPDDLPNGHVDYITGPEVTTYKAVIQYSCEETFYTMSSNGKYVCEADGFWTSSKGEKSLPVCKPVCGLSTHTSGGRIIGGQPAKPGDFPWQVLLLGETTAAGALIHDDWVLTAAHAVYGKTEAMSSLDIRMGILKRLSPHYTQAWPEAVFIHEGYTHGAGFDNDIALIKLKNKVTINRNIMPICLPRKEAASLMKTDFVGTVAGWGLTQKGFLARNLMFVDIPIVDHQKCATAYTKQPYPGAKVTVNMLCAGLDAGGKDSCRGDSGGALVFLDNETQRWFVGGIVSWGSINCGGSEQYGVYTKVTNYIPWIENIINNF
notes: Mw 42309 Da; also called rat MASP-2cf; MASP2cf
B4: protein according to SEQ ID NO: 17 (TFPI-D2 variant with the inhibitor loop VCRAVKR) (designed binder)
chain: B1 chain with F13V
modifications: ends and bridges not checked; cysteine pairing not given here
notes: Made as m1
B5: SGMI-2 (SGCI-based MASP inhibitor 2) (designed binder)
chain: GSGEVTCEPGTTFKDKCNTCRCGSDGKSAVCTKLWCNQ
notes: Comparator from WO 2012/007777

In assay [1] the target is T1, human MASP-2 catalytic fragment CCP1-CCP2-SP (human, UniProt O00187 287-686, limits assumed).
T1 construct: domain: CCP1-CCP2-SP; also called human MASP-2cf; human MASP2cf
The experiment in a line: ratio of Ki values, enzyme inhibition. On the procedure: (§1) For determining the KI of the inhibitors on MASP enzymes we used catalytic enzyme fragments containing the three C-terminal domains: CCP1-CCP2-SP. The synthetic substrate used in the measurements was Z-L-Lys-SBzl hydrochloride (Sigma, C3647), from which a 10 mM stock solution was prepared. The reactions were performed in a volume of 0.2 ml at room temperature in a buffer consisting of 20 mM HEPES; 145 mM NaCl; 5 mM CaCl₂; 0.05% Triton-X100. The substrate cleaved by the enzyme entered into a reaction with the 5,5′-Dithiobis(2-nitrobenzoic acid) (DTNB, Ellman's reagent, Sigma—D8130) auxiliary substrate present in the solution in 2-fold excess to Z-L-Lys-SBzl. The release of the chromophore group created in this way was monitored via the change of absorbance at 410 nm using a BioTek Synergy H4 multimode microplate reader.
(§2) A dilution sequence was prepared from the individual inhibitors, the enzyme was added to it, and it was incubated for 2 hours at room temperature. The samples were transferred on a 96-well microtiter plate (Nunc 269620). The reactions were started by adding the mixture of the substrate and the auxiliary substrate to the samples. The concentration of the substrate and the length of the measuring period were chosen so that under the given conditions the enzyme should consume less than 10% of the substrate. In this case we used 250 μM Z-L-Lys-SBzl and 500 μM DTNB in the reactions. In the course of measuring, a method developed for the characterisation of tight-binding inhibitors was used (Empie, 1982). The concentration of the product was measured as a function of reaction time. The slope of the straight line determined for the initial phase of the reaction was normalised with the slope obtained for the uninhibited enzyme reaction, and this value was multiplied with the total enzyme concentration. As a result of this we obtained the free enzyme concentration, which was plotted as a function of the total inhibitor concentration and the Ki value was determined according to the following equation: […]

For assay [2], the target named is bovine trypsin (Sigma-T1426) (bovine, UniProt P00760 24-246). The experiment in a line: fluorometric residual activity, Z-Gly-Pro-Arg-AMC, tight-binding fit. On the procedure:
The KI values of the inhibitors on bovine trypsin were also determined. In these experiments, we used bovine trypsin (Sigma—T1426). The concentration of trypsin was determined by fluorescent active-site titration based on Jameson 1973. The measurements were done in 200 μL final assay volume of 50 mM Tris, 10 mM CaCl2, 0.005% Triton X-100 pH 8.0 buffer on 96-well black microtiter plates (Thermo Scientific Sterilin—611F96BK) using a BioTek Synergy H4 multimode microplate reader.
Constant predefined concentrations of the enzymes were mixed with serial dilutions of the inhibitors and co-incubated at room temperature until reaching equilibrium. The incubation times were 5 h in the case of the protein according to SEQ ID NO: 11, 8 h in the case of TFPI-D2 and the protein according to SEQ ID NO: 17 and 24 h in the case of the protein according to SEQ ID NO: 14. Then, 10 μM (final concentration) of Z-Gly-Pro-Arg-AMC substrate was added to the samples. The concentration of the free enzyme was determined through measuring the residual enzyme activity in a fluorometric kinetic assay at 380 nm excitation wavelength and 460 nm emission wavelength in two parallel experiments. Analyses of the data were done as described above.

Assay [3] addresses T1, human MASP-2 catalytic fragment …. The experiment in a line: enzyme inhibition, Z-L-Lys-SBzl/DTNB, tight-binding fit, catalytic fragment CCP1-CCP2-SP. On the procedure: as §1, §2
(§3) where E is the free (uninhibited) enzyme concentration, and E₀ is the total enzyme concentration. The stock concentration of the inhibitors was determined by titration with bovine trypsin of known concentration. The results were calculated as the average of parallel measurements.

In assay [4] the target is B3. The description is as above. On the procedure:
as §1, §2, §3

Assay [5] addresses T2, human MASP-3 catalytic fragment CCP1-CCP2-SP (human, UniProt P48740-2 298-728, limits assumed).
T2 construct: domain: CCP1-CCP2-SP
T2 sequence (looked up): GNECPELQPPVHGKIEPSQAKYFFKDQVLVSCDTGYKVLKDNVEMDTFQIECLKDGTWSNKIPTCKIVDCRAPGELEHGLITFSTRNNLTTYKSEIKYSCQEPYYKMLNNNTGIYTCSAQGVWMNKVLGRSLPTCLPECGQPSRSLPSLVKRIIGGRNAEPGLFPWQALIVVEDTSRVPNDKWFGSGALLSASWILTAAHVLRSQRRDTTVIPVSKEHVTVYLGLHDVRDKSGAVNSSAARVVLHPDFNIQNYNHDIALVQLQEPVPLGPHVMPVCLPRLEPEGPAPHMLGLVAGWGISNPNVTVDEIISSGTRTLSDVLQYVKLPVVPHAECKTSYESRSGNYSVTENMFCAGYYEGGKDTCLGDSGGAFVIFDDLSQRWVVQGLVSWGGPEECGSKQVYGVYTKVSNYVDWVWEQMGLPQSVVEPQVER
Description: enzyme inhibition, Z-L-Lys-SBzl/DTNB, catalytic fragment. On the procedure:
as §1, §2

For assay [6], the target named is T3, human MASP-1 catalytic fragment CCP1-CCP2-SP (human, UniProt P48740 298-699, limits assumed).
T3 construct: domain: CCP1-CCP2-SP
T3 sequence (looked up): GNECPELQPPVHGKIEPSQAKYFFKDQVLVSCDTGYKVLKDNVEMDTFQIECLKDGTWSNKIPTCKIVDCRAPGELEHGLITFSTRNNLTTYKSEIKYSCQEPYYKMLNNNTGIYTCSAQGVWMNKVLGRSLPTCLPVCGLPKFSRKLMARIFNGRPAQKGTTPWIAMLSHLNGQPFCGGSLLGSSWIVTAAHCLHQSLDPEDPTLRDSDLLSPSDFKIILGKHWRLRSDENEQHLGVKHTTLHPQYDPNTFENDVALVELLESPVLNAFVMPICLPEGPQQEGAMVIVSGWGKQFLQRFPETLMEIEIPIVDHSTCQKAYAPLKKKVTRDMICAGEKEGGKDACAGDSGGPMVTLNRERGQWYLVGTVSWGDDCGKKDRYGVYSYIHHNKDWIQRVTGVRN
The description is as above. On the procedure:
as §1, §2

Assay [7] concerns the target T4, human MASP-2 enzyme as present in normal human serum (human, UniProt O00187 16-686). Description: cell-based or functional assay.
Assay [8] addresses B3. The experiment in a line: ratio of Ki values, enzyme inhibition. On the procedure: as §1, §2
Assay [9] concerns the target rat MASP-2 as present in rat serum (rat, UniProt Q9JJS8 20-685). The experiment in a line: cell-based or functional assay.
For assay [10], the target named is T2, human MASP-3 catalytic fragment …. Description: enzyme inhibition, Z-L-Lys-SBzl/DTNB, catalytic fragment; approximation based on a single measurement. On the procedure:
as §1
A dilution sequence was prepared from the individual inhibitors, the enzyme was added to it, and it was incubated for 2 hours at room temperature. The samples were transferred on a 96-well microtiter plate (Nunc 269620). […] The concentration of the product was measured as a function of reaction time. The slope of the straight line determined for the initial phase of the reaction was normalised with the slope obtained for the uninhibited enzyme reaction, and this value was multiplied with the total enzyme concentration. […]

Assay [11] deals with T5, TFPI-D2, second Kunitz domain (residues 121-178) of human Tissue Factor Pathway Inhibitor-1 (human, UniProt P10646 121-178).
T5 construct: Recombinant, made as m1; also called parental TFPI-D2; human TFPI-D2
T5 sequence: B1 chain with F13I, A16G, V17Y, K18I, R19T
The experiment in a line: enzyme inhibition.

Assay [12] concerns the target T4, human MASP-2 enzyme as present in …. The experiment in a line: cell-based or functional assay. This is another data set of the same source.

Positions count from the first letter of the chain named. Where no end group is shown, it is not given here.

T4 sequence (O00187 16-686 limits assumed): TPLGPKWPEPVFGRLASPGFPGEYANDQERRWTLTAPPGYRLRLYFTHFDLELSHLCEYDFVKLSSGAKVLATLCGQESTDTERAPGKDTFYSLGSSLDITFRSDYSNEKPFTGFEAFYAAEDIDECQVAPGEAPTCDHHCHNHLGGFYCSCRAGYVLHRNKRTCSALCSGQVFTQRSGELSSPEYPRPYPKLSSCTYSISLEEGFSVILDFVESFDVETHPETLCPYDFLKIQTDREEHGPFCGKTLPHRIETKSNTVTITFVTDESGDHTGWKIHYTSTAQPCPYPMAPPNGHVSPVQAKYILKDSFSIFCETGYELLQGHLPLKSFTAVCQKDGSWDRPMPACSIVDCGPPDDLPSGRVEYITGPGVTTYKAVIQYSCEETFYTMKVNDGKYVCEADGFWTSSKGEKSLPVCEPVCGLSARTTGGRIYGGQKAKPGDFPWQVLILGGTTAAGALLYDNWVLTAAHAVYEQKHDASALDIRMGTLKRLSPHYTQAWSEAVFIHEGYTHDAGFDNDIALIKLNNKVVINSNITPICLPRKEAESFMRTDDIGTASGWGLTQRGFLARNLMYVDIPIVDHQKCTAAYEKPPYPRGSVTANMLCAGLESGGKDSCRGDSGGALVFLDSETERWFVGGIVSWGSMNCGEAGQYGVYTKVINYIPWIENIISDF
bovine trypsin (Sigma-T1426), sequence (P00760 24-246): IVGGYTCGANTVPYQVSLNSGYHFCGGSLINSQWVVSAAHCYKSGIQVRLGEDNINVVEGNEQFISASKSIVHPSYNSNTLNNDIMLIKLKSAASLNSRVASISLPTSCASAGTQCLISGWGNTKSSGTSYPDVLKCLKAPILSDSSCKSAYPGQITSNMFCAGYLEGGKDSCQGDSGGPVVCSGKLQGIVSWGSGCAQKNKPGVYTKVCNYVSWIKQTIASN
T1 sequence (O00187 287-686 limits assumed): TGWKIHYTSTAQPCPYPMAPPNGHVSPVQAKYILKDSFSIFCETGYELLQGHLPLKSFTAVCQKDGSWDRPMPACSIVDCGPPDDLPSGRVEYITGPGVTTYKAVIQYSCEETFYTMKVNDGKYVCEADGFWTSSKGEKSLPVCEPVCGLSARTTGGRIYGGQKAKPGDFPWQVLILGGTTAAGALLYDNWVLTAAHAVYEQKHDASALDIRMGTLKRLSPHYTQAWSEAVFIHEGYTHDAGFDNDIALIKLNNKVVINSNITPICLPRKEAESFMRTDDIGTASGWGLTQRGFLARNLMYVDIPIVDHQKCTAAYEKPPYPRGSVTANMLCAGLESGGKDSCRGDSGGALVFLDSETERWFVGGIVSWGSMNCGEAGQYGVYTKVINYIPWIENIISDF

On to B1, for which the “fold more potent than SGMI-2” value in assay [1] turned out to be 3 fold. The Ki (usually a dissociation constant, usually derived from enzyme kinetics or from competition with a known ligand) was determined as 0.094 nM in assay [2], 2 nM in assay [3] and 640 nM in assay [4]. Further, the binding result in assay [5] and in assay [6] was “no binding” throughout. Also, the “IC50 (nM), lectin pathway activity in diluted human serum (WIELISA, C5b-9)” value (shortened to “IC50 (nM), lectin pathway activity”) in [7] amounted to 35 nM.

Regarding B2, the “fold reduction of binding affinity against the protein of SEQ ID NO: 11” value in assay [1] amounted to 4 fold. The “fold higher binding affinity than human TFPI-D2” value in assay [8] came to 25 fold. For the same molecule, the “fold more potent than SGMI-2” value in assay [8] is roughly 3 fold. For the same molecule, the “IC50 (nM), C3 deposition, lectin pathway in diluted rat serum on mannan” value in [9] worked out at 869 nM. Besides, in assay [9], the “IC50 (nM), C4 deposition, lectin pathway in diluted rat serum on mannan” value came to 108 nM. Also, the “IC50 (nM), C5b-9 deposition, lectin pathway in diluted rat serum on mannan” value in assay [9] is 940 nM. Moreover, the inhibition constant Ki was 0.004 nM in [2], 7.9 nM in [3], 7.2 nM in [4] and roughly 30000 nM in assay [10]. The binding result in [6] is on record as “no binding”. Further, the “IC50 (nM), lectin pathway activity” value in assay [7] is 90 nM.

In the case of B3, the binding result in assay [11] was “binds”.

In the case of B4, the “fold reduction of binding affinity against the protein of SEQ ID NO: 11” value in assay [1] amounted to 18 fold. For the same molecule, the “fold higher binding affinity than human TFPI-D2” value in assay [8] was 25 fold. In assay [8], the “fold more potent than SGMI-2” value is roughly 3 fold. For the same molecule, the figures for the Ki in [2], in assay [3] and in assay [4] were 0.017 nM, 36.7 nM and 7.5 nM, respectively. The binding result in assay [5] and in [6] was “no binding” throughout. In addition, the “IC50 (nM), lectin pathway activity” value in [7] was 380 nM. The “fold of the lectin pathway IC50 against SGMI-2” value in [12] is 2 fold.

Regarding B5, in [9], the “IC50 (nM), C3 deposition, lectin pathway in diluted rat serum on mannan” value came out at 2240 nM; the “IC50 (nM), C4 deposition, lectin pathway in diluted rat serum on mannan” value turned out to be 457 nM; the “IC50 (nM), C5b-9 deposition, lectin pathway in diluted rat serum on mannan” value turned out to be 4000 nM. Further, in assay [2], the Ki came to 100 nM. For the same molecule, in assay [3], the Ki turned out to be 8.1 nM. Also, the inhibitory constant (Ki) in assay [4] stood at 22.7 nM. In addition, in assay [6], the binding result is reported as “no binding”. In [7], the “IC50 (nM), lectin pathway activity” value stood at 174 nM.
